The series has as its system HT22 nerve cell. It is filed as cell-based, Mouse.

We go through one substance from paper PMC11321638 (Advanced Science, 2024).

As for Botulinum Toxin Type A [Botox], the “induction of apoptosis in HT22 cells” value is given as “dose‐dependent induction of apoptosis” and the “necrocytosis of HT22 cells” value is listed as “neither RSI prion nor Botox induced necrocytosis”.
